From patent US20120316071A1 (published 2012)

Experiments:
[1] = target: T1, Recombinant Human DLL4 (R&D Systems Cat#1506-D4/CF) (human, UniProt Q9NR61 27-524); experiment: ECL multispot (MSD) binding assay, DLL4 spotted on plate, purified Fab in solution; Fab concentration not given
T1 construct: Bought recombinant protein; also called delta-like protein 4; rHuman DLL4

[2] = target: T1, Recombinant Human DLL4 (R&D Systems …); experiment: ECL multispot (MSD) binding assay, DLL4 signal over blank spot; Fab concentration not given
[3] = target: T2, Recombinant Human DLL4 (delta-like protein 4) (human, UniProt Q9NR61 27-524); experiment: ELISA on plate-coated DLL4, 100 nM Fab
T2 construct: Bought recombinant protein (R&D Systems Cat#1506-D4/CF); also called rHuman DLL4

[4] = target: T2, Recombinant Human DLL4 (delta-like …); experiment: ECL 96-well plate assay on immobilised DLL4, 10 nM Fab

B1: Fab VH1-46_IGHD6-6*01_IGHJ1*01 S102A/S103P/S104F/H111F (APFF) & L6_IGKJ1*01 S28T (Fab, V domains shown)
VH: QVQLVQSGAEVKKPGASVKVSCKASGYTFTSYYMHWVRQAPGQGLEWMGIINPSGGSTSYAQKFQGRVTMTRDTSTSTVYMELSSLRSEDTAVYYCAREEYAPFSAEYFQFWGQGTLVTVSS
VL: EIVLTQSPATLSLSPGERATLSCRASQTVSSYLAWYQQKPGQAPRLLIYDASNRATGIPARFSGSGSGTDFTLTISSLEPEDFAVYYCQQRSNWPPWTFGQGTKVEIKR
notes: Fab expressed in E. coli: VH joined to CH1 (Plasmid A, His6 and Flag tags), VL joined to kappa CL (Plasmid C); also called APFF S28T
ECL signal [1]: 159000
Signal/Blank [2]: 522

B2: Fab VH1-46_IGHD6-6*01_IGHJ1*01 S102A/S103P/S104F/H111F (APFF) & L6_IGKJ1*01 S28L (Fab, V domains shown)
VH: QVQLVQSGAEVKKPGASVKVSCKASGYTFTSYYMHWVRQAPGQGLEWMGIINPSGGSTSYAQKFQGRVTMTRDTSTSTVYMELSSLRSEDTAVYYCAREEYAPFSAEYFQFWGQGTLVTVSS
VL: EIVLTQSPATLSLSPGERATLSCRASQLVSSYLAWYQQKPGQAPRLLIYDASNRATGIPARFSGSGSGTDFTLTISSLEPEDFAVYYCQQRSNWPPWTFGQGTKVEIKR
notes: Fab expressed in E. coli: VH joined to CH1 (Plasmid A, His6 and Flag tags), VL joined to kappa CL (Plasmid C); also called APFF S28L
ECL signal [1]: 72300
Signal/Blank [2]: 220

B3: Fab VH1-46_IGHD6-6*01_IGHJ1*01 S102A/S103P/S104F/H111F (APFF) & L6_IGKJ1*01 S30G (Fab, V domains shown)
VH: QVQLVQSGAEVKKPGASVKVSCKASGYTFTSYYMHWVRQAPGQGLEWMGIINPSGGSTSYAQKFQGRVTMTRDTSTSTVYMELSSLRSEDTAVYYCAREEYAPFSAEYFQFWGQGTLVTVSS
VL: EIVLTQSPATLSLSPGERATLSCRASQSVGSYLAWYQQKPGQAPRLLIYDASNRATGIPARFSGSGSGTDFTLTISSLEPEDFAVYYCQQRSNWPPWTFGQGTKVEIKR
notes: Fab expressed in E. coli: VH joined to CH1 (Plasmid A, His6 and Flag tags), VL joined to kappa CL (Plasmid C); also called APFF S30G
ECL signal [1]: 180000
Signal/Blank [2]: 664

B4: Fab VH1-46_IGHD6-6*01_IGHJ1*01 S102A/S103P/S104F/H111F (APFF) & L6_IGKJ1*01 S28Q (Fab, V domains shown)
VH: QVQLVQSGAEVKKPGASVKVSCKASGYTFTSYYMHWVRQAPGQGLEWMGIINPSGGSTSYAQKFQGRVTMTRDTSTSTVYMELSSLRSEDTAVYYCAREEYAPFSAEYFQFWGQGTLVTVSS
VL: EIVLTQSPATLSLSPGERATLSCRASQQVSSYLAWYQQKPGQAPRLLIYDASNRATGIPARFSGSGSGTDFTLTISSLEPEDFAVYYCQQRSNWPPWTFGQGTKVEIKR
notes: Fab expressed in E. coli: VH joined to CH1 (Plasmid A, His6 and Flag tags), VL joined to kappa CL (Plasmid C); also called APFF S28Q
ECL signal [1]: 133000
Signal/Blank [2]: 378

B5: Fab VH1-46_IGHD6-6*01_IGHJ1*01 S102A/S103P/S104F/H111F (APFF) & L6_IGKJ1*01 S28H (Fab, V domains shown)
VH: QVQLVQSGAEVKKPGASVKVSCKASGYTFTSYYMHWVRQAPGQGLEWMGIINPSGGSTSYAQKFQGRVTMTRDTSTSTVYMELSSLRSEDTAVYYCAREEYAPFSAEYFQFWGQGTLVTVSS
VL: EIVLTQSPATLSLSPGERATLSCRASQHVSSYLAWYQQKPGQAPRLLIYDASNRATGIPARFSGSGSGTDFTLTISSLEPEDFAVYYCQQRSNWPPWTFGQGTKVEIKR
notes: Fab expressed in E. coli: VH joined to CH1 (Plasmid A, His6 and Flag tags), VL joined to kappa CL (Plasmid C); also called APFF S28H
ECL signal [1]: 209000
Signal/Blank [2]: 609

B6: Fab VH1-46_IGHD6-6*01_IGHJ1*01 S102A/S103P/S104F/H111F (APFF) & L6_IGKJ1*01 S28M (Fab, V domains shown)
VH: QVQLVQSGAEVKKPGASVKVSCKASGYTFTSYYMHWVRQAPGQGLEWMGIINPSGGSTSYAQKFQGRVTMTRDTSTSTVYMELSSLRSEDTAVYYCAREEYAPFSAEYFQFWGQGTLVTVSS
VL: EIVLTQSPATLSLSPGERATLSCRASQMVSSYLAWYQQKPGQAPRLLIYDASNRATGIPARFSGSGSGTDFTLTISSLEPEDFAVYYCQQRSNWPPWTFGQGTKVEIKR
notes: Fab expressed in E. coli: VH joined to CH1 (Plasmid A, His6 and Flag tags), VL joined to kappa CL (Plasmid C); also called APFF S28M
ECL signal [1]: 108000
Signal/Blank [2]: 336

B7: Fab VH1-46_IGHD6-6*01_IGHJ1*01 S102A/S103P/S104F/H111F S54I & L6_IGKJ1*01 (Fab, V domains shown)
VH: QVQLVQSGAEVKKPGASVKVSCKASGYTFTSYYMHWVRQAPGQGLEWMGIINPIGGSTSYAQKFQGRVTMTRDTSTSTVYMELSSLRSEDTAVYYCAREEYAPFSAEYFQFWGQGTLVTVSS
VL: not shown
notes: Fab from E. coli; CH1 (with His and Flag tags) and kappa CL come from the expression plasmids; also called APFF S54I
ELISA signal [3]: 0.03
ECL signal [4]: 18400

B8: Fab VH1-46_IGHD6-6*01_IGHJ1*01 S102A/S103P/S104F/H111F (APFF) & L6_IGKJ1*01 S30A (Fab, V domains shown)
VH: QVQLVQSGAEVKKPGASVKVSCKASGYTFTSYYMHWVRQAPGQGLEWMGIINPSGGSTSYAQKFQGRVTMTRDTSTSTVYMELSSLRSEDTAVYYCAREEYAPFSAEYFQFWGQGTLVTVSS
VL: EIVLTQSPATLSLSPGERATLSCRASQSVASYLAWYQQKPGQAPRLLIYDASNRATGIPARFSGSGSGTDFTLTISSLEPEDFAVYYCQQRSNWPPWTFGQGTKVEIKR
notes: Fab expressed in E. coli: VH joined to CH1 (Plasmid A, His6 and Flag tags), VL joined to kappa CL (Plasmid C); also called APFF S30A
ECL signal [1]: 184000
Signal/Blank [2]: 516

B9: Fab VH1-46_IGHD6-6*01_IGHJ1*01 S102A/S103P/S104F/H111F (APFF) & L6_IGKJ1*01 S28W (Fab, V domains shown)
VH: QVQLVQSGAEVKKPGASVKVSCKASGYTFTSYYMHWVRQAPGQGLEWMGIINPSGGSTSYAQKFQGRVTMTRDTSTSTVYMELSSLRSEDTAVYYCAREEYAPFSAEYFQFWGQGTLVTVSS
VL: EIVLTQSPATLSLSPGERATLSCRASQWVSSYLAWYQQKPGQAPRLLIYDASNRATGIPARFSGSGSGTDFTLTISSLEPEDFAVYYCQQRSNWPPWTFGQGTKVEIKR
notes: Fab expressed in E. coli: VH joined to CH1 (Plasmid A, His6 and Flag tags), VL joined to kappa CL (Plasmid C); also called APFF S28W
ECL signal [1]: 165000
Signal/Blank [2]: 545

B10: Fab VH1-46_IGHD6-6*01_IGHJ1*01 S102A/S103P/S104F/H111F N52W & L6_IGKJ1*01 (Fab, V domains shown)
VH: QVQLVQSGAEVKKPGASVKVSCKASGYTFTSYYMHWVRQAPGQGLEWMGIIWPSGGSTSYAQKFQGRVTMTRDTSTSTVYMELSSLRSEDTAVYYCAREEYAPFSAEYFQFWGQGTLVTVSS
VL: not shown
notes: Fab from E. coli; CH1 (with His and Flag tags) and kappa CL come from the expression plasmids; also called APFF N52W
ELISA signal [3]: 0.42
ECL signal [4]: 87000
